Measurements published in US20130123171A1 (INDIANA UNIVERSITY RESEARCH AND TECHNOLOGY CORPORA, published 2013).
“And” between values parts separate entries of the source, which are not always exact repeats. Identical values can stand only once. Positions of bridges follow the written chain, without caps; N, C: chain ends. Chains are numbered I, II in the order given. No end group written: not given here.

Legend:
[1] = biological target: insulin receptor, A subtype (UniProt P06213); experiment: cell-based or functional assay
[2] = biological target: insulin receptor, B subtype (UniProt P06213); experiment: cell-based or functional assay
human insulin receptor [3] = biological target: T1, human insulin receptor (human, UniProt P06213 28-1382); experiment: SPA competition vs 125I-insulin, human IR membranes (Example 3)
T1 construct: whole, on cells
Experimental: (§1) Non-specifically bound (NSB) radioactivity was measured in the wells with a four-fold concentration excess of “cold” native ligand than the highest concentration in test samples. Total bound radioactivity was detected in the wells with no competitor. Percent specific binding was calculated as following: % Specific Binding=(Bound-NSB/Total bound-NSB)×100.

[4] = biological target: human insulin receptor (human) (UniProt P06213); experiment: cell-based or functional assay
human IGF-1 receptor [5] = biological target: T2, human IGF-1 receptor (human, UniProt P08069 31-1367); experiment: cell-based or functional assay
T2 construct: whole, on cells

human insulin receptor [6] = biological target: T1, human insulin receptor; experiment: cell-based or functional assay
human IGF-1 receptor [7] = biological target: T2, human IGF-1 receptor; experiment: SPA competition vs 125I-IGF-1, human IGF-1R membranes (Example 3)
Experimental: as §1

[8] = biological target: human insulin receptor (human) (UniProt P06213); experiment: SPA competition vs 125I-insulin, human IR membranes (Example 3)
human insulin receptor [9] = biological target: T1, human insulin receptor; experiment: in vitro insulin receptor binding assay after 95 hr in 20% plasma/PBS at 37 C, relative to native insulin
human insulin receptor [10] = biological target: T1, human insulin receptor; experiment: in vitro insulin receptor binding assay after 0 hr in 20% plasma/PBS at 37 C, relative to native insulin
human insulin receptor [11] = biological target: T1, human insulin receptor; experiment: in vitro insulin receptor binding assay after 9 hr in 20% plasma/PBS at 37 C, relative to native insulin

Molecule	IC50 (human insulin receptor [3])	% IGF-1 (in test) (human IGF-1 receptor [7])	% native IGF-1 activity (0.55 nM) (human IGF-1 receptor [7])	IC50 (human IGF-1 receptor [7])	further results
B^1Aoa2(H5, H10,Y16,L17)25a: A^1(pNH2-F19, N18, N21) (peptide)					% (of insulin), in vitro phosphorylation assay, IR-A [1]: 81%; % (of insulin), in vitro phosphorylation assay, IR-B [2]: 48%
B^1PEG-Aoa2(H5, H10,Y16,L17)25a: A^1(pNH2-F19, N18, N21), N-terminal 20 kDa PEG, no dipeptide at A19					% (of insulin), in vitro phosphorylation assay, IR-A [1]: 18%; % (of insulin), in vitro phosphorylation assay, IR-B [2]: 6.5%
B^1PEGAoa2(H5, H10,Y16,L17)25a: A^1(dLys(rE-C14),Nleu-aF19, N18, N21) (peptide)					% (of insulin), in vitro phosphorylation assay, IR-A, prodrug after 78 h in PBS at 37 C [1]: 8.3%; % (of insulin), in vitro phosphorylation assay, IR-A, prodrug at 0 h [1]: 1.1%; % (of insulin), in vitro phosphorylation assay, IR-B, prodrug after 78 h in PBS at 37 C [2]: 6.3%; % (of insulin), in vitro phosphorylation assay, IR-B, prodrug at 0 h [2]: 1.2%
IGF1 A:B(Y^B16L^B17)(p-NH2-F)^A19amide (peptide)	1.08 nM				% of Insulin Activity (human insulin receptor [3]): 22%
IGF1(Y^B16L^B17)(AlaPro)^A-1,0 (peptide)	1.93 nM				% of Insulin Activity (human insulin receptor [3]): 37.1%
IGF-1 A (H8 A9 N21):B (H5D10Y16L17 A22) DPI A-COOH (peptide)					% Insulin, total phosphorylation, Insulin Receptor [4]: 360% and 614%
IGF-1 A (H8 A9 N21):B (H5D10Y16L17) DPI A-COOH (peptide)	0.05 nM and 0.09 nM	12.9%	13.6%	4.03 nM	% IGF, total phosphorylation, IGF-1 Receptor (human IGF-1 receptor [5]): 181%; % Insulin, total phosphorylation, Insulin Receptor (human insulin receptor [6]): 840% and 1080%; % insulin (in test) (human insulin receptor [3]): 1580% and 1670%
IGF-1 A:B (H5D10Y16L17) (S═O)DPI (peptide)					% insulin (in test) [8]: 316%; IC50 [8]: 0.25 nM
IGF-1 A:B (H5D10Y16L17) DPI (peptide)					% insulin (in test) [8]: 479%; IC50 [8]: 0.16 nM
IGF-1 A:B(D10Y16L17) DPI A-COOH (peptide)	0.26 nM and 0.2 nM and 0.42 nM	7.7%	8.1%	6.79 nM	% IGF, total phosphorylation, IGF-1 Receptor (human IGF-1 receptor [5]): 112%; % Insulin, total phosphorylation, Insulin Receptor (human insulin receptor [6]): 1580%; % insulin (in test) (human insulin receptor [3]): 301% and 380% and 174%; % native insulin activity (0.6 nM) (human insulin receptor [3]): 231% and 300% and 144%
IGF-1 A:B(E10 Y16L17)-E31E32B-COOH (peptide)		3%	3.1%	17.5 nM	% Insulin, total phosphorylation, Insulin Receptor (human insulin receptor [6]): 18.1% and 31.7%
In A:IGF-1 B(YL) (peptide)	82.6 nM and 107 nM				% insulin (in test) (human insulin receptor [3]): 0.9% and 0.7%; % native insulin activity (0.6 nM) (human insulin receptor [3]): 0.7% and 0.6%
MIU-30a: B^1(Y16,L17,Y25)29a: A^1(dLys(Ac),Sar-aF19) (peptide)					% Activity of Insulin (human insulin receptor [9]): 115%; % Activity of Insulin, in vitro phosphorylation assay, after 1 hr in 20% plasma (human insulin receptor [6]): 23%; % Activity of Insulin, in vitro phosphorylation assay, after 3 hr in 20% plasma (human insulin receptor [6]): 26.8%; % Activity of Insulin, in vitro phosphorylation assay, after 6 hr in 20% plasma (human insulin receptor [6]): 32.5%; % Activity of Insulin, in vitro phosphorylation assay, after 9 hr in 20% plasma (human insulin receptor [6]): 41.1%; % Activity of Insulin, in vitro phosphorylation assay, after 10.5 hr in 20% plasma (human insulin receptor [6]): 43.2%; % Activity of Insulin (human insulin receptor [10]): 34.4%; % Activity of Insulin (human insulin receptor [11]): 100%
IGF-1 A:In (1-17)-IGF-1 B (18-30) (disulfide I:7-II:7 (inferred); not fully specified (bridges); ends not checked; also: C-terminal amide (chain not given here), my derivation) chain 1: GIVDECCFRSCDLRRLEMYCA-NH2 chain 2: FVNQHLCGSHLVEALYLVCGDRGFYFNKPT-NH2	2.77 nM and 2.67 nM and 2.48 nM	0.9%	0.9%	62.5 nM	
IGF-1 A:In B(1-5)-IGF-1 B(YL) (6-30) (disulfide I:6-I:11, I:20-II:19, I:7-II:7; also: disulfides as in insulin, my derivation) A chain: GIVDECCFRSCDLRRLEMYCA-NH2 B chain: FVNQHLCGAELVDALYLVCGDRGFYFNKPT-NH2		3.6%	2%	27.5 nM	
IGF-1 A:B (H5D10Y16L17) DPI (disulfide I:7-II:6 (inferred); not fully specified (bridges); ends not checked; also: C-terminal amide (chain not given here)) chain 1: GIVDECCFRSCDLRRLEMYCA-NH2 chain 2: GPEHLCGADLVDALYLVCGDRGFY-NH2		11.2%	11.8%	4.66 nM	
IGF-1 A:B(E10Y16L17) (disulfide I:7-II:6 (inferred); not fully specified (bridges); cysteine pairing not given here, A chain, then B chain) A chain: GIVDECCFRSCDLRRLEMYCA-NH2 B chain: GPETLCGAELVDALYLVCGDRGFYFNKPT-NH2	0.66 nM and 0.51 nM			7.85 nM and 12.2 nM	
IGF-1 A:IGF-1 B(1-8)-In (9-17)-IGF-1 B (18-30) (disulfide I:7-II:6 (inferred); not fully specified (bridges); ends not checked; also: C-terminal amide (chain not given here), my derivation) chain 1: GIVDECCFRSCDLRRLEMYCA-NH2 chain 2: GPETLCGSHLVEALYLVCGDRGFYFNKPT-NH2	1.59 nM	0.3%	0.4%	131 nM	% insulin (in test) (human insulin receptor [3]): 19.1%; % native insulin activity (0.6 nM) (human insulin receptor [3]): 37.7%
IGF1 (Y^B16L^B17) (disulfide I:7-II:6 (inferred); not fully specified (C-terminus, bridges); cysteine pairing not given here, A chain, then B chain, two chain heteroduplex; also called IGF1(YL)^B16B17 analog; IGF1 A:B(Y^B16L^B17)) A chain: GIVDECCFRSCDLRRLEMYCA B chain: GPETLCGAELVDALYLVCGDRGFYFNKPT	0.51 nM				
IGF-1 A:B (disulfide I:7-II:6 (inferred); not fully specified (bridges); ends not checked; also: C-terminal amide (chain not given here), Two chain heteroduplex of the native IGF-1 A and B chains) chain 1: GIVDECCFRSCDLRRLEMYCA-NH2 chain 2: GPETLCGAELVDALQFVCGDRGFYFNKPT-NH2	10.4 nM				% insulin (in test) (human insulin receptor [3]): 5.8%; % native insulin activity (0.6 nM) (human insulin receptor [3]): 5.8%
IGF-1 A (H8 A9 N21):B (H5D10Y16L17 A22) DPI A-COOH (ends and bridges not checked) chain 1: GIVDECCHASCDLRRLEMYCN-OH chain 2: GPEHLCGADLVDALYLVCGDAGFY-NH2		2.3%	2.4%	22.8 nM	
IGF-1 A:B (E10Y16L17) DPI (disulfide I:7-II:6 (inferred); not fully specified (bridges); cysteine pairing not given here, A chain, then B chain; DPI as in m25) A chain: GIVDECCFRSCDLRRLEMYCA-NH2 B chain: GPETLCGAELVDALYLVCGDRGFY-NH2		3.3%	2.4%	22.9 nM	
